“And” between values parts separate entries of the source, which are not always exact repeats. Identical values can stand only once.
Columns and labels:
[1] = target: RDPE truncated by a single amino acid from the N-terminus (ΔN1) (Ruminococcus sp. 5_1_39BFAA); experiment: native gel or EMSA; blue native PAGE (BN-PAGE) of the soluble cytoplasmic fraction and the culture supernatant of B. subtilis after 24 h of cultivation; non-reducing sample buffer, Coomassie blue; mass estimated within ±15%
[2] = target: RDPE variant D102A (Ruminococcus sp. 5_1_39BFAA); experiment: as above
[3] = target: RDPE derivative with a C-terminal 6-His tag (RDPE-H) (Ruminococcus sp. 5_1_39BFAA); experiment: cross-linking; in vivo cross-linking of B. subtilis cells with 0.5 mM DSS in PBS pH 8.3, 20 min at 37 °C; cells recovered 1 h in fresh medium; 10% SDS-PAGE with β-mercaptoethanol and anti-His immunoblot of cell and supernatant fractions
[4] = target: RDPE variant G107A (Ruminococcus sp. 5_1_39BFAA); experiment: native gel or EMSA; blue native PAGE (BN-PAGE) of the soluble cytoplasmic fraction and the culture supernatant of B. subtilis after 24 h of cultivation; non-reducing sample buffer, Coomassie blue; mass estimated within ±15%
[5] = target: RDPE variant G181A (Ruminococcus sp. 5_1_39BFAA); experiment: as above
[6] = target: RDPE variant I103A (Ruminococcus sp. 5_1_39BFAA); experiment: as above
[7] = target: full-length RDPE fused to mCherry (RDPE-mCh) (Ruminococcus sp. 5_1_39BFAA); experiment: as above
[8] = target: RDPE variant 100A (Leu100 to alanine) (Ruminococcus sp. 5_1_39BFAA); experiment: as above
[9] = target: RDPE variant V180A (Ruminococcus sp. 5_1_39BFAA); experiment: as above
[10] = target: RDPE variant V106A (Ruminococcus sp. 5_1_39BFAA); experiment: as above
[11] = target: RDPE variant L184A (Ruminococcus sp. 5_1_39BFAA); experiment: as above
[12] = target: RDPE variant V182A (Ruminococcus sp. 5_1_39BFAA); experiment: as above
[13] = target: RDPE variant V175A (Ruminococcus sp. 5_1_39BFAA); experiment: as above
[14] = target: D-psicose 3-epimerase from Ruminococcus sp. 5_1_39BFAA (RDPE) (Ruminococcus sp. 5_1_39BFAA); experiment: native gel or EMSA; soluble protein fractions combined with SDS at 0, 0.5%, 1% and 2% and run on a 10% acrylamide native gel
[15] = target: D-psicose 3-epimerase from Ruminococcus sp. 5_1_39BFAA (RDPE) (Ruminococcus sp. 5_1_39BFAA); experiment: native gel or EMSA; blue native PAGE (BN-PAGE) of the soluble cytoplasmic fraction and the culture supernatant of B. subtilis after 24 h of cultivation; non-reducing sample buffer, Coomassie blue; mass estimated within ±15%

“RDPE truncated by a single amino acid from the N-terminus (ΔN1) (enzyme)” was tested, and the stoichiometry N [1] was 4.
For RDPE variant D102A (enzyme), the stoichiometry N [2] was 4.
“RDPE derivative with a C-terminal 6-His tag (RDPE-H) (enzyme)” showed a stoichiometry N [3] of 4.
For RDPE variant G107A (enzyme), the stoichiometry N [4] was 4.
With RDPE variant G181A (enzyme) the stoichiometry N [5] was 4.
Work on RDPE variant I103A (enzyme) yielded a stoichiometry N [6] of 4.
“full-length RDPE fused to mCherry (RDPE-mCh) (enzyme)” showed a stoichiometry N [7] of 4.
With “RDPE variant 100A (Leu100 to alanine) (enzyme)” the stoichiometry N [8] was 4.
For RDPE variant V180A (enzyme), the stoichiometry N [9] was 4.
For RDPE variant V106A (enzyme), the stoichiometry N [10] was 4.
With RDPE variant L184A (enzyme) the stoichiometry N [11] was 4.
RDPE variant V182A (enzyme) showed a stoichiometry N [12] of 4.
RDPE variant V175A (enzyme) gave a stoichiometry N [13] of 4.
“D-psicose 3-epimerase from Ruminococcus sp. 5_1_39BFAA (RDPE) (enzyme)” was tested, and the stoichiometry N [14] was 3 and 2 and the stoichiometry N [15] was 4.

— PMC5343618
